Changes are numbered by the printed parent chain.

The text below walks through data of patent US20140235701, “NGF APTAMER AND APPLICATION THEREOF” (RIBOMIC INC., published 2014).

Details in all cases: tags: R&D Systems; chain copies: 2
The target in data set [1] is T1, NGF (nerve growth factor) (Homo sapiens, UniProt P01138 P01138:122-241). Kind of data set: cell_activity; TF-1 proliferation. The protocol: (§1) Two NGF receptor (human TrkA and human p75) genes were introduced into TF-1 cells (ATCC Number: CRL-2003), which is a human erythroleukemic cell line, by using a retrovirus vector to give cells that highly express two receptors simultaneously and stably. The cells were suspended in an RPMI-1640 medium containing 20% fetal bovine serum, and seeded in a white 96 well flat-bottom plate at 1000 cells (50 μL) per well. […] With the amount of luminescence per well obtained by the addition of NGF alone and culture of the cells for 3 days as inhibitory activity 0%, and that of the well obtained by NGF free culture for 3 days as inhibitory activity 100%, the inhibitory activity of the aptamer was calculated from the amount of luminescence per well obtained by culturing with the addition of NGF and the aptamer in mixture.

Data set [2] concerns the target T1, NGF (nerve growth factor). Kind of data set: cell_activity; neurite; TF-1 >10.
Data set [3] deals with T1, NGF (nerve growth factor). Nature of the data set: cell_activity; neurite; TF-1 0.363.
The target in data set [4] is T1, NGF (nerve growth factor). Nature of the data set: cell_activity; neurite; TF-1 0.296.
The target of the next data set is T2, NT-4 (neurotrophin-4) (Homo sapiens, UniProt P34130 P34130:81-210).
T2 sequence: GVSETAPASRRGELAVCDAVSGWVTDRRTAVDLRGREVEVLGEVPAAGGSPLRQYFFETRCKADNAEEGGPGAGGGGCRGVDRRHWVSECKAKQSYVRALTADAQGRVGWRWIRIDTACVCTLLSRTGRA
Kind of data set: SPR; scarcely bound. As to the method:
(§2) The binding activity of these shortened forms to NGF and NT-3 was measured by the surface plasmon resonance method. For the measurement method, BIAcore2000 manufactured by BIAcore was used and CM5 reactive with amino group was used as a sensorchip, as shown in Example 1. The protein was immobilized in the same manner as in Example 1 by using ethyl-3-carbodiimide hydrochloride and N-hydroxysuccinimide. […] After protein immobilization, blocking with ethanolamine-HCl was performed. The amount of immobilized NGF and NT-3 was 3,000-4,000 RU and 3,000-5,000 RU, respectively. The aptamer for an analyte was prepared to 0.15 μM-0.5 μM. The running buffer and regeneration solution were the same as those in Example 1. NT-3 was immobilized on FC2, and NGF on FC3, and the final sensorgram was obtained by subtracting the results of FC1.
(§3) Then, the aptamers were subjected to shortening to 40 mer in the same manner as with consensus secondary structure 1. […] NT-4 was measured in the same manner as in NT-3.
(§4) The shortened sequences were measured for the binding to NGF, NT-3, NT-4 by the surface plasmon resonance method. The measurement was performed in the same manner as in Example 13.
(In general: Surface plasmon resonance follows binding to a sensor surface in real time, without labels.)

Another data set deals with T3, NT-3 (neurotrophin-3) (Homo sapiens, UniProt P20783 P20783:139-257).
T3 sequence: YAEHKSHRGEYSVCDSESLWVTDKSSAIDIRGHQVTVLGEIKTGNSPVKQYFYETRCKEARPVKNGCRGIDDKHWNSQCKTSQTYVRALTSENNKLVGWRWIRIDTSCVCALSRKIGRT
Nature of the data set: SPR; scarcely bound. As to the method:
as §2, §3, §4

Data set [5] addresses T1, NGF (nerve growth factor). Kind of data set: cell_activity; neurite; TF-1 0.193.
The target in data set [6] is T1, NGF (nerve growth factor). Kind of data set: cell_activity; neurite; TF-1 0.322.
Data set [7] has as its target T1, NGF (nerve growth factor). Nature of the data set: cell_activity; neurite; TF-1 0.311. The protocol:
(§5) With the neurite length per cell obtained by the addition of NGF alone as inhibitory activity 0%, and that of the cell obtained by NGF free culture for 2 days as inhibitory activity 100%, the inhibitory activity of the aptamer was calculated from the neurite length per cell obtained by culturing with the addition of NGF and the aptamer in mixture.
as §1

The target in data set [8] is T1, NGF (nerve growth factor). Nature of the data set: cell_activity; neurite; TF-1 0.183.
Data set [9] concerns the target T1, NGF (nerve growth factor). Kind of data set: cell_activity; neurite; TF-1 0.455.
Data set [10] concerns the target T1, NGF (nerve growth factor). Kind of data set: cell_activity; neurite; TF-1 0.047.
The target in data set [11] is T1, NGF (nerve growth factor). Nature of the data set: cell_activity; neurite; TF-1 0.048.
Data set [12] deals with T1, NGF (nerve growth factor). Kind of data set: cell_activity; neurite; TF-1 0.081.
Data set [13] deals with T1, NGF (nerve growth factor). Nature of the data set: cell_activity; neurite; TF-1 0.039. The protocol:
as §5, §1

Data set [14] addresses T1, NGF (nerve growth factor). Kind of data set: cell_activity; neurite; TF-1 0.266.

T1 sequence (P01138 122-241, one chain of several): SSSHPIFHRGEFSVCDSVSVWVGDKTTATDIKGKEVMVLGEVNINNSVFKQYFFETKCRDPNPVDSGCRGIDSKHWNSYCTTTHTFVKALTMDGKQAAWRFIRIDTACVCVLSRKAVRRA

B1: SEQ ID NO: 62(1) (ssRNA)
RNA: GGGUCCUGCUGCGGAGUUUCCGUCUCGGUGGCUGUUACCC
modifications: 2'-OMe G (G8,G34 2'-OH), dA, 2'-F C/U; 5',3' idT
The molecule B1 returned an IC50 in data set [1] of 0.49 nM.

B2: SEQ ID NO: 86 (ssRNA)
RNA: B1 RNA with G14U, G22U, C26G, G27C, C32U
modifications: 2'-F C/U, dA, 2'-OH G
In the case of B2, inhibition in data set [2] was half-maximal at 0.834 nM (IC50).

B3: SEQ ID NO: 111 (ssRNA)
RNA: GGGUCCUGUCUAAGAGUUUCCGUCUCGUAGACUGUUACCC
modifications: 2'-F C/U, dA, 2'-OH G
B3 registered an IC50 in data set [3] of 0.252 nM.

B4: SEQ ID NO: 114 (ssRNA)
RNA: B3 RNA with U9A, U11A, A29U, A31U
modifications: 2'-F C/U, dA, 2'-OH G
B4: in data set [4], the IC50 was found to be 0.363 nM. The binding result with NT-4 (neurotrophin-4) and with NT-3 (neurotrophin-3) was “no binding” each time.

B5: SEQ ID NO: 112 (ssRNA)
RNA: B3 RNA with C10U, U11C, A29G
modifications: 2'-F C/U, dA, 2'-OH G
Molecule B5 gave an IC50 in [5] of 0.334 nM. Further, the binding result in the data set with NT-4 (neurotrophin-4) and with NT-3 (neurotrophin-3) was “no binding” throughout.

B6: SEQ ID NO: 116 (ssRNA)
RNA: B3 RNA with C10U, U11C, A29G, G30A
modifications: 2'-F C/U, dA, 2'-OH G
Take B6: the binding result in the data set with NT-3 (neurotrophin-3) was “no binding”. Also, the midpoint of inhibition in [6], the IC50, lay at 0.411 nM.

B7: SEQ ID NO: 85 (ssRNA)
RNA: B3 RNA with U9A, C10G, G27A, G30C, A31U
modifications: 2'-F C/U, dA, 2'-OH G
Molecule B7 registered a 50% inhibitory concentration (IC50) in data set [7] of less than 0.3 nM.

B8: SEQ ID NO: 115 (ssRNA)
RNA: B3 RNA
modifications: 2'-F C/U, dA, 2'-OH G
Consider B8, for which the binding result in the data set with NT-4 (neurotrophin-4) and in the data set with NT-3 (neurotrophin-3) was “no binding” in each case. This molecule returned an IC50 in data set [8] of 0.298 nM.

B9: SEQ ID NO: 117 (ssRNA)
RNA: B3 RNA with C10U, U11G, A29C, G30A
modifications: 2'-F C/U, dA, 2'-OH G
Molecule B9 registered an IC50 in data set [9] of 0.394 nM. For the same molecule, the binding result in the data set with NT-4 (neurotrophin-4) and with NT-3 (neurotrophin-3) was “no binding” in each case.

B10: SEQ ID NO: 163 (ssRNA)
RNA: GGGUCCUGGAUAAGAGTUUCCGUCUCGUAUCCTGUUACCC
modifications: as 82(25) except dT17,dT33,dU36
In turn, B10 displayed an IC50 in data set [10] of 0.113 nM. That is a sub-nanomolar value.

B11: SEQ ID NO: 164 (ssRNA)
RNA: B10 RNA
modifications: as 82(25) except dU7,dT17,dT33
In data set [11], B11 came in with a 50% inhibitory concentration (IC50) of 0.132 nM. This counts as sub-nanomolar.

B12: SEQ ID NO: 82(60) (ssRNA)
RNA: B10 RNA with T17U, T33U
modifications: as 82(48) without 5' idT; PS between A12 and A13
In data set [12], B12 displayed an IC50 of 0.034 nM.

B13: SEQ ID NO: 165 (ssRNA)
RNA: B10 RNA
modifications: as 82(25) except dT17,dT33,dU36, 2'-OMe A37
Take B13: in [13], the IC50 came to 0.139 nM.

B14: SEQ ID NO: 82(63) (ssRNA)
RNA: B10 RNA with T17U, T33U
modifications: as 82(48) without 5' idT; PS between G34 and U35
With B14, the IC50 in [14] was 0.046 nM.

As a reminder, the IC50 is the concentration that inhibits the measured activity by half. Lower therefore signals greater potency.
